This is an account of results in article PMC3097224, “Mth10b, a Unique Member of the Sac10b Family, Does Not Bind Nucleic Acid” (PLoS ONE, 2011).

As usually defined, the stoichiometry N is the number of molecules, sites or subunits per partner or assembly.

This data set concerns the molecule itself. As to the kind of experiment: AUC; sedimentation velocity, 60000 rpm, 20°C, buffer F (50 mM Na2HPO4-NaH2PO4/pH 7.5), protein at 0.6 and 1.0 mg/mL, absorption at 238 nm.

B1: Mth10b from Methanobacterium thermoautotrophicum ΔH (natural protein, UniProt O27527 2-91, looked up)
chain: SEENVVYIGNKPVMNYVLAVVTQMNGGTSEVILKARGIAISRAVDVAEIVRNRFIPDIQIENIDICTEEIIGNEGTATNVSAIEIQLRKD
notes: Mth10b, Sac10b family protein of Methanobacterium thermoautotrophicum ΔH, gene MTH1483; whole gene cloned with primers from the start codon to the stop codon; No tag (pET11a, NdeI/BamHI); also called MTH1483; source: Escherichia coli BL21 (DE3), pET11a, purified (Q Sepharose Fast Flow, Phenyl Sepharose High Performance, Resource-S)
For the protein B1, the “stoichiometry N” value was 2.
